Measured values: patent US20260209386A1 (MYTHIC THERAPEUTICS, published 2026)

T1: Human PTK7 (human, UniProt Q13308 31-1070)
T1 sequence: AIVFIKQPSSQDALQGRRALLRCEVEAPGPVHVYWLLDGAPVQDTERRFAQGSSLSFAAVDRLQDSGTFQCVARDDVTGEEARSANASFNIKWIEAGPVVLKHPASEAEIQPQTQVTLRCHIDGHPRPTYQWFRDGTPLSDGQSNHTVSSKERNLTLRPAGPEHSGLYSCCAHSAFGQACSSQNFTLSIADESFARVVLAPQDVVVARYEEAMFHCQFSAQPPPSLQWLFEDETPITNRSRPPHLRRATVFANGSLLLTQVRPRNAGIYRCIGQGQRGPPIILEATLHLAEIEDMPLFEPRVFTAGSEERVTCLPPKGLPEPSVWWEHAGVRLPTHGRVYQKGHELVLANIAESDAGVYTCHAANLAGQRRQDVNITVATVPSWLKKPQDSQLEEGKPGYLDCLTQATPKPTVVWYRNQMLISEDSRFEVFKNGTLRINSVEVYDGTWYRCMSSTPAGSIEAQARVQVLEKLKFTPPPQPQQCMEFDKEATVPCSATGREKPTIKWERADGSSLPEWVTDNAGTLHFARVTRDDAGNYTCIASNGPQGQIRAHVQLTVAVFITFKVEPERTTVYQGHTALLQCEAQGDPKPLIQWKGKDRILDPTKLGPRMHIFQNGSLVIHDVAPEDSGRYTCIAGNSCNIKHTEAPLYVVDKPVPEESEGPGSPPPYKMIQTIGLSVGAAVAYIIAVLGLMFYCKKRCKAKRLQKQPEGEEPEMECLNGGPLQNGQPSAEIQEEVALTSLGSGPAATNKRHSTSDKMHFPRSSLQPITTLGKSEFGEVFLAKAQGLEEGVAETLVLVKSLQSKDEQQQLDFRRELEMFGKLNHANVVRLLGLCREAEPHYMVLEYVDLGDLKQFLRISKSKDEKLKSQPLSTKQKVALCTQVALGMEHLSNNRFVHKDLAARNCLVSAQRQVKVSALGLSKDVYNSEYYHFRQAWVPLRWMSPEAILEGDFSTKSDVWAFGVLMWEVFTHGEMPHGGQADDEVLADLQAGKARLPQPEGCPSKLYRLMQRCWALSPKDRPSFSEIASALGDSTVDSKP

T2: Human PTK7/CCK4 Protein, His Tag, Acro Biosystems PT7-H52H3 (human, UniProt Q13308 31-704)
T2 construct: bought protein; also called Human PTK7 Protein, His Tag, Acro Biosystems; not shown: His tag
T2 sequence: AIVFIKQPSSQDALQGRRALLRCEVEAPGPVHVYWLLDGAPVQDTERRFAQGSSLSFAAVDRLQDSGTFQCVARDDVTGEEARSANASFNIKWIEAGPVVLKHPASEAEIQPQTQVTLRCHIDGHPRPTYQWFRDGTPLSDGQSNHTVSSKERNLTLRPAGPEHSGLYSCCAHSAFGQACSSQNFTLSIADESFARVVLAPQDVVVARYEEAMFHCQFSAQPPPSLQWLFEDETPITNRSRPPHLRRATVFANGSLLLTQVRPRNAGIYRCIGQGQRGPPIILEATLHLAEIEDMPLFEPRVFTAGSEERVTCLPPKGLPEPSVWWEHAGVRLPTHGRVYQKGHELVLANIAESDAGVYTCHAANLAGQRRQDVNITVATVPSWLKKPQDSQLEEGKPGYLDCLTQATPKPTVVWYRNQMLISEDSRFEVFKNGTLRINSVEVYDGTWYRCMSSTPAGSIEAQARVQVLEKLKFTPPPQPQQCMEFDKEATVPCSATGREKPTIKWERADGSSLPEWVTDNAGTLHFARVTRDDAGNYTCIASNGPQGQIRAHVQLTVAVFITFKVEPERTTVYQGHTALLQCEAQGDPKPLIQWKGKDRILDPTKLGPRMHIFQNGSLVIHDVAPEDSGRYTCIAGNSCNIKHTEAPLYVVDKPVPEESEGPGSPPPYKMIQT


target: T1, Human PTK7; assay: cell-based or functional assay

Row | Internalization, FOW @ 25 nM (fold over the wildtype, parental antibody) | Binder
1 | 1.19 fold over parental antibody | MYT11033 (antibody, V domains shown) VH: EVQLVESGGGLVQPGGSLRLSCTASGLSLSSHWMSWVRQAPGKGLEWVGVISAGGNTYYANWAKGRFTISRDTSKNTVYLQMNSLRAEDTAVYFCARGDDGYTNAAYVSNLWGQGTLVTVSS VL: EIVMTQSPSTLSASVGDRVIITCQASQSISSWLSWYQQKPGKAPKLLIYKASTLASGVPSRFSGSGSGAEFTLTISSLQPDDFATYYCQSYFDSTTIAFGQGTKLTVL
2 | 1.14 fold over parental antibody | MYT10899 (antibody, V domains shown) VH: EVQLVESGGGLVQPGGSLRLSCTASGFSLSNYVMNWVRQAPGKGLEWVGIIDSHGSTYYASWAKGRFTISRDTSKNTVYLQMNSLRAEDTAVYFCARGLYLWGQGTLVTVSS VL: EIVMTQSPSTLSASVGDRVIITCQSSQSVYNNNLLAWYQQKPGKAPKLLIYYTSNLASGVPSRFSGSGSGAEFTLTISSLQPDDFATYYCQGGYNGNIYAFGQGTKLTVL
3 | 1.29 fold over parental antibody | MYT10917 (antibody, V domains shown) VH: EVQLVESGGGLVQPGGSLRLSCTASGFSLSNYVMNWVRQAPGKGLEWVGIIDSSGSTYYASWAKGRFTISRDTSKNTVYLQMNSLRAEDTAVYYCARGLYLWGQGTLVTVSS VL: EIVMTQSPSTLSASVGDRVIITCQSSQSVYNNNLLAWYQQKPGKAPKLLIYYTSNLASGVPSRFSGSGSGAEFTLTISSLQPDDFATYYCQGGYNGNIYAFGQGTKLTVL
4 | 1.06 fold over parental antibody | MYT10952 (antibody, V domains shown) VH: EVQLVESGGGLVQPGGSLRLSCTASGHSLSSYAMGWVRQAPGKGLEWVGFINAGGNTYYANWAKGRFTISRDTSKNTVYLQMNSLRAEDTAVYFCARRYSRASGWYDLWGQGTLVTVSS VL: EIVMTQSPSTLSASVGDRVIITCQASQSISSYLAWYQQKPGKAPKLLIYAASTLASGVPSRFSGSGSGAEFTLTISSLQPDDFATYYCQSYSYSSGIDYGDVFGQGTKLTVL
5 | 1.05 fold over parental antibody | MYT11005 (antibody, V domains shown) VH: EVQLVESGGGLVQPGGSLRLSCTASGFSLSSYAMGWVRQAPGKGLEWVGFINAGGNTYYANWAKGRFTISRDTSKNTVYLQMNSLRAEDTAVYFCARRYSRASGWYDLWGQGTLVTVSS VL: EIVMTQSPSTLSASVGDRVIITCQASQSISSYLAWYQQKPGKAPKLLIYAAHTLASGVPSRFSGSGSGAEFTLTISSLQPDDFATYYCQSYSYSSGIDYGDVFGQGTKLTVL
6 | 1.05 fold over parental antibody | MYT10955 (antibody, V domains shown) VH: EVQLVESGGGLVQPGGSLRLSCTASGFSLHSYAMGWVRQAPGKGLEWVGFINAGGNTYYANWAKGRFTISRDTSKNTVYLQMNSLRAEDTAVYFCARRYSRASGWYDLWGQGTLVTVSS VL: EIVMTQSPSTLSASVGDRVIITCQASQSISSYLAWYQQKPGKAPKLLIYAASTLASGVPSRFSGSGSGAEFTLTISSLQPDDFATYYCQSYSYSSGIDYGDVFGQGTKLTVL
7 | 1.2 fold over parental antibody | MYT11017 (antibody, V domains shown) VH: EVQLVESGGGLVQPGGSLRLSCTASGFSLSSYAMGWVRQAPGKGLEWVGFINAGGNTYYANWAKGRFTISRDTSKNTVYLQMNSLRAEDTAVYFCARRYSRASGWYDLWGQGTLVTVSS VL: EIVMTQSPSTLSASVGDRVIITCQASQSISSYLAWYQQKPGKAPKLLIYAASTLASGVPSRFSGSGSGAEFTLTISSLQPDDFATYYCQSYSYSSHIDYGDVFGQGTKLTVL
8 | 1.09 fold over parental antibody | MYT10989 (antibody, V domains shown) VH: EVQLVESGGGLVQPGGSLRLSCTASGFSLSSYAMGWVRQAPGKGLEWVGFINAGGNTYYANWAKGRFTISRDTSKNTVYLQMNSLRAEDTAVYFCARRYSRASGWYDHWGQGTLVTVSS VL: EIVMTQSPSTLSASVGDRVIITCQASQSISSYLAWYQQKPGKAPKLLIYAASTLASGVPSRFSGSGSGAEFTLTISSLQPDDFATYYCQSYSYSSGIDYGDVFGQGTKLTVL

target: T2, Human PTK7/CCK4 Protein, His Tag, Acro …; assay: BLI, antibody on anti-human Fc sensor, 50 nM PTK7

Row | binding result | Binder
9 | binds | MYT11392 (antibody, V domains shown, IgG) VH: EVQLVESGGGLVQPGGSLRLSCTASGIDLSNYAVIWVRQAPGKGLEWVGIIYTYDTTYYANWAKGRFTISRDTSKNTVYLQMNSLRAEDTAVYFCARSFSDISDLIKLWGQGTLVTVSS VL: EIVMTQSPSTLSASVGDRVIITCQASQSLYNNHDLAWYQQKPGKAPKLLIYEASKLASGVPSRFSGSGSGAEFTLTISSLQPDDFATYYCLGEFSCGSGDCLAFGQGTKLTVL
10 | binds | MYT11393 (antibody, V domains shown, IgG) VH: EVQLVESGGGLVQPGGSLRLSCTASGIDLSNYAVIWVRQAPGKGLEWVGIIYTYDTTYYANWAKGRFTISRDTSKNTVYLQMNSLRAEDTAVYFCARSFSDISDLIKLWGQGTLVTVSS VL: EIVMTQSPSTLSASVGDRVIITCQASQSLYNNKHLAWYQQKPGKAPKLLIYEASKLASGVPSRFSGSGSGAEFTLTISSLQPDDFATYYCLGEFSCGSGDCLAFGQGTKLTVL
11 | binds | MYT11409 (antibody, V domains shown, IgG) VH: EVQLVESGGGLVQPGGSLRLSCTASGIDLSNYAVIWVRQAPGKGLEWVGIIYTYDTTYYANWAKGRFTISRDTSKNTVYLQMNSLRAEDTAVYFCARSFSDISDLIKLWGQGTLVTVSS VL: EIVMTQSPSTLSASVGDRVIITCQASQSLYNNKDLAWYQQKPGKAPKLLIYEASKLASGVPSRFSGSGSGAEFTLTISSLQPDDFATYYCLGEFSCGHGDCLAFGQGTKLTVL
12 | binds | MYT11410 (antibody, V domains shown, IgG) VH: EVQLVESGGGLVQPGGSLRLSCTASGIDLSNYAVIWVRQAPGKGLEWVGIIYTYDTTYYANWAKGRFTISRDTSKNTVYLQMNSLRAEDTAVYFCARSFSDISDLIKLWGQGTLVTVSS VL: EIVMTQSPSTLSASVGDRVIITCQASQSLYNNKDLAWYQQKPGKAPKLLIYEASKLASGVPSRFSGSGSGAEFTLTISSLQPDDFATYYCLGEFSCGSHDCLAFGQGTKLTVL
13 | binds | MYT11394 (antibody, V domains shown, IgG) VH: EVQLVESGGGLVQPGGSLRLSCTASGIDLSNYAVIWVRQAPGKGLEWVGIIYTYDTTYYANWAKGRFTISRDTSKNTVYLQMNSLRAEDTAVYFCARSFSDISDLIKLWGQGTLVTVSS VL: EIVMTQSPSTLSASVGDRVIITCQASQSLYNNKDHAWYQQKPGKAPKLLIYEASKLASGVPSRFSGSGSGAEFTLTISSLQPDDFATYYCLGEFSCGSGDCLAFGQGTKLTVL
14 | binds | MYT11398 (antibody, V domains shown, IgG) VH: EVQLVESGGGLVQPGGSLRLSCTASGIDLSNYAVIWVRQAPGKGLEWVGIIYTYDTTYYANWAKGRFTISRDTSKNTVYLQMNSLRAEDTAVYFCARSFSDISDLIKLWGQGTLVTVSS VL: EIVMTQSPSTLSASVGDRVIITCQASQSLYNNKDLAWYQQKPGKAPKLLIYEAHKLASGVPSRFSGSGSGAEFTLTISSLQPDDFATYYCLGEFSCGSGDCLAFGQGTKLTVL
15 | binds | MYT11396 (antibody, V domains shown, IgG) VH: EVQLVESGGGLVQPGGSLRLSCTASGIDLSNYAVIWVRQAPGKGLEWVGIIYTYDTTYYANWAKGRFTISRDTSKNTVYLQMNSLRAEDTAVYFCARSFSDISDLIKLWGQGTLVTVSS VL: EIVMTQSPSTLSASVGDRVIITCQASQSLYNNKDLAWYQQKPGKAPKLLIYHASKLASGVPSRFSGSGSGAEFTLTISSLQPDDFATYYCLGEFSCGSGDCLAFGQGTKLTVL
